Measured values from article PMC10858199, “Amyloid-β aggregates activate peripheral monocytes in mild cognitive impairment” (Nature Communications, 2024).

Experiments:
[1] = molecular target: synthetic, predominantly monomeric amyloid-β (M-Aβ) (human) (UniProt P05067); test: SPR; BIAcore 3000, CM-4 chips; monomeric Aβ, aggregated Aβ (100 fmol Aβ42/mm^2) or iC3b amine-coupled; I domains injected at 20-10000 nM in 150 mM NaCl, 1 mM MgCl2, 5.0 mM HEPES (pH 7.4); contact 180 s, dissociation 400 s; two-dimensional distribution of 1:1 interactions fitted with EVILFIT
[2] = molecular target: in vitro-aggregated amyloid-β (A-Aβ) (human) (UniProt P05067); test: as above

| Kd [1] [µM] | KD, high-affinity class of binding sites [2] [nM] | koff, high-affinity class of binding sites [2] [s⁻¹] | koff, moderate-affinity class of binding sites [2] [s⁻¹] | Substance |
| --- | --- | --- | --- | --- |
| 79 | – | – | – | CR3 I domain, stabilized in the activated conformation (domain or fragment) |
| – | 0.016 | 0.00025 | 5e-05 | CR4 I domain, stabilized in the activated conformation (from UniProt P20702 20-1101) (domain or fragment) |
